Key:
[1] = molecular target: T1, recombinant human GM-CSF protein (human, UniProt P04141 18-144); assay: SPR Biacore T200, antibody captured by anti-human Fc, GM-CSF as analyte, 25 C, 1:1 model
T1 construct: Bought recombinant protein (Genscript); also called biotinylated human GM-CSF protein
Procedure: The binding kinetics of humanized antibodies were measured by Biacore as previously described. […] The binding kinetics assay of antibody to antigen was performed using Biacore T200 system through a human antibody capture approach. The anti-human Fc IgG were immobilized on CMS sensor chip according to the manufacturer's instruction. The test antibody was injected and captured by the immobilized anti-human Fc IgG. And then serial concentrations of the antigen were individually injected, and the binding profile was recorded for each concentration of antigen analyte, respectively.
The assay system was regenerated by injection of 10 mM Glycine-HCL pH 1.5 for 30 seconds. The running buffer was HBS-EP+ (10 mM HEPES, pH 7.4, 150 mM NaCl, 3 mM EDTA and 0.05% P20). The assay temperature was 25° C., and the association and dissociation time were 180 and 600 seconds, respectively.

[2] = molecular target: T1, recombinant human GM-CSF protein; assay: cell-based or functional assay
[3] = molecular target: T2, recombinant rhesus GM-CSF protein (rhesus, UniProt Q9GL44 18-144); assay: ELISA, rhesus GM-CSF coated at 1 ug/ml
T2 construct: Bought recombinant protein (Genscript)
T2 sequence (Q9GL44 entry or part of it limits assumed): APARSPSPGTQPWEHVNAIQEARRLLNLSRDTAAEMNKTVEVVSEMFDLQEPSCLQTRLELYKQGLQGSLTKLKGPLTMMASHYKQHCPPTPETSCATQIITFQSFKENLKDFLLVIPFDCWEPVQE
Procedure: Recombinant rhesus GM-CSF protein (Genscript) was coated at 1 ug/ml in PBS onto microtiter plates for 2 h at room temperature (RT). After coating of antigen, the wells were blocked with PBS/0.05% Tween (PBST) with 1% BSA for 1 h at RT. After washing of the wells with PBST, different concentrations of humanized anti-GM-CSF antibodies were added to the well and incubated for 1 at RT. For detection of the binding antibodies, the HRP-conjugated secondary antibodies against mouse Fc (Jackson Immuno Research) were added, followed by the addition of fluorogenic substrates (Roche). Between all incubation steps, the wells of the plate were washed with PBST three times. Fluorescence was measured in a TECAN Spectrafluor plate reader.

T1 sequence (P04141 18-144 limits assumed): as the sequence (Q9GL44 entry or part of it limits assumed) above, with G9S, K38E, V43I, S53T, Q67R, Q104E counted along it

Row | Binder | Kd [1] | koff [1] | kon [1] | IC50 for TF-1 proliferation [2] | EC50 [3]
1 | Hu23F4-29 (antibody, V domains shown, Humanized) VH: EVQLVQSGAEVKKPGASVKVSCKASGYTFTSHYLHWVRQAPGQGLEWMGWIFPGDDKTKYNEKFKGRVTLTSDTSISTAYMELSRLRSDDTAVYYCARGTKYLNWNFDVWGQGTTVTVSS VL: DIQLTQSPSFLSASVGDRVTITCKANQNVGTTLAWYQQKPGKAPKALIYSASYRYSGVPSRFSGSGSGTEFTLTISSLQPEDFATYYCHQYTTYPLTFGGGTKVEIK | 0.152 nM | 0.000101 s⁻¹ | 667000 M⁻¹ s⁻¹ | 0.0274 µg/mL | –
2 | Hu23F4-6 (antibody, V domains shown, Humanized) VH: EVQLVQSGAEVKKPGATVKISCKVSGYTFTSHYLHWVQQAPGKGLEWMGWIFPGDDKTKYNEKFKGRVTITSDTSTDTAYMELSSLRSEDTAVYYCARGTKYLNWNFDVWGQGTTVTVSS VL: DIQLTQSPSFLSASVGDRVTITCKANQNVGTTLAWYQQKPGKAPKALIYSASYRYSGVPSRFSGSGSGTEFTLTISSLQPEDFATYYCHQYTTYPLTFGGGTKVEIK | 0.154 nM | 0.000135 s⁻¹ | 876000 M⁻¹ s⁻¹ | 0.00787 µg/mL | –
3 | Hu23F4-5 (antibody, V domains shown, Humanized) VH: EVQLVQSGAEVKKPGATVKISCKVSGYTFTSHYLHWVQQAPGKGLEWMGWIFPGDDKTKYNEKFKGRVTITSDTSTDTAYMELSSLRSEDTAVYYCARGTKYLNWNFDVWGQGTTVTVSS VL: DIQLTQSPSFLSASVGDRVTITCKANQNVGTTLAWYQQKPGKAPKLLIYSASYRYSGVPSRFSGSGSGTEFTLTISSLQPEDFATYYCHQYTTYPLTFGGGTKVEIK | 0.104 nM | 0.000124 s⁻¹ | 1.19e+06 M⁻¹ s⁻¹ | 0.0156 µg/mL | –
4 | Hu23F4-13 (antibody, V domains shown, Humanized) VH: EVQLVQSGAEVKKPGATVKISCKVSGYTFTSHYLHWVQQAPGKGLEWIGWIFPGDDKTKYNEKFKGRATLTSDTSTDTAYMELSSLRSEDTAVYYCARGTKYLNWNFDVWGQGTTVTVSS VL: DIQLTQSPSFLSASVGDRVTITCKANQNVGTTLAWYQQKPGKAPKLLIYSASYRYSGVPSRFSGSGSGTEFTLTISSLQPEDFATYYCHQYTTYPLTFGGGTKVEIK | 0.0935 nM | 0.00012 s⁻¹ | 1.28e+06 M⁻¹ s⁻¹ | 0.00495 µg/mL | 0.00744 µg/mL
5 | Hu23F4-20 (antibody, V domains shown, Humanized) VH: EVQLVQSGAEVKKPGASVKVSCKASGYTFTSHYLHWVRQAPGQGLEWMGWIFPGDDKTKYNEKFKGRVTMTRDTSISTAYMELSRLRSDDTAVYYCARGTKYLNWNFDVWGQGTTVTVSS VL: DIQLTQSPSFLSASVGDRVTITCKANQNVGTTLAWYQQKPGKAPKLLIYSASYRYSGVPSRFSGSGSGTEFTLTISSLQPEDFATYYCHQYTTYPLTFGGGTKVEIK | 0.142 nM | 0.000114 s⁻¹ | 801000 M⁻¹ s⁻¹ | 0.00877 µg/mL | –
6 | Hu23F4-27 (antibody, V domains shown, Humanized) VH: EVQLVQSGAEVKKPGASVKVSCKASGYTFTSHYLHWVRQAPGQGLEWMGWIFPGDDKTKYNEKFKGRVTMTSDTSISTAYMELSRLRSDDTAVYYCARGTKYLNWNFDVWGQGTTVTVSS VL: DIQLTQSPSFLSASVGDRVTITCKANQNVGTTLAWYQQKPGKSPKALIYSASYRYSGVPDRFSGSGSGTDFTLTISSLQPEDFATYFCHQYTTYPLTFGGGTKVEIK | 0.102 nM | 9.46e-05 s⁻¹ | 923000 M⁻¹ s⁻¹ | 0.00395 µg/mL | 0.00625 µg/mL
7 | Hu23F4-25 (antibody, V domains shown, Humanized) VH: EVQLVQSGAEVKKPGASVKVSCKASGYTFTSHYLHWVRQAPGQGLEWMGWIFPGDDKTKYNEKFKGRVTMTSDTSISTAYMELSRLRSDDTAVYYCARGTKYLNWNFDVWGQGTTVTVSS VL: DIQLTQSPSFLSASVGDRVTITCKANQNVGTTLAWYQQKPGKAPKALIYSASYRYSGVPSRFSGSGSGTEFTLTISSLQPEDFATYYCHQYTTYPLTFGGGTKVEIK | 0.172 nM | 0.000109 s⁻¹ | 635000 M⁻¹ s⁻¹ | 0.0122 µg/mL | –
8 | Hu23F4-23 (antibody, V domains shown, Humanized) VH: EVQLVQSGAEVKKPGASVKVSCKASGYTFTSHYLHWVRQAPGQGLEWMGWIFPGDDKTKYNEKFKGRVTMTRDTSISTAYMELSRLRSDDTAVYYCARGTKYLNWNFDVWGQGTTVTVSS VL: DIQLTQSPSFLSASVGDRVTITCKANQNVGTTLAWYQQKPGKSPKALIYSASYRYSGVPDRFSGSGSGTDFTLTISSLQPEDFATYFCHQYTTYPLTFGGGTKVEIK | 0.13 nM | 0.000116 s⁻¹ | 899000 M⁻¹ s⁻¹ | 0.00908 µg/mL | –
9 | 50C5 chimera (antibody, V domains shown, Human constant regions (captured by anti-human Fc IgG); also called 35230Hu50C5-chimera; Hu50C5-chimera) VH: QVQLQQSAAELVRPGASVKMSCKASGYIFTPYSIHWIKQRPGQGLEWIGYINPSTGYIEYNQHFKDRTTLTADKSSSTAYMQLRSLTSEDSAVYYCARGGDYEGYFDYWGQGTTLTVSS VL: DIQMTQSPDSLSASVGETVTITCRLNENIYSFLAWYQQRQGKSPQLLVYNAETLAEDVPSRFSGSGSGTQFSLKISSLQTDDFGTYYCQQHYGTPYTFGGGTNLEIE | 0.032 nM | 0.000142 s⁻¹ | 4.43e+06 M⁻¹ s⁻¹ | 0.0865 µg/mL | –

Next, values leading:

Row | Kd [1] | koff [1] | kon [1] | IC50 for TF-1 proliferation [2] | EC50 [3] | Binder
10 | 0.0311 nM | 0.000138 s⁻¹ | 4.42e+06 M⁻¹ s⁻¹ | 0.0239 µg/mL | – | Hu50C5-6 (antibody, V domains shown, Humanized; also called 35230Hu50C5-6) VH: EVQLVQSGAEVKKPGSSVKVSCKASGYIFSPYSIHWVRQAPGQGLEWMGYINPSTGYIEYNQHFKDRVTITADKSTSTAYMELRSLRSEDTAVYYCARGGDYEGYFDYWGQGTTVTVSS VL: DIQMTQSPSSLSASVGDRVTITCRLNENIYSFLAWYQQKPGKAPKLLIYNAETLAEGVPSRFSGSGSGTDFTLTISSLQPEDFATYYCQQHYGTPYTFGGGTKVEIK
11 | 0.0231 nM | 0.000109 s⁻¹ | 4.72e+06 M⁻¹ s⁻¹ | 0.0413 µg/mL | – | Hu50C5-18 (antibody, V domains shown, Humanized) VH: EVQLVQSGAEVKKPGSSVKVSCKASGYIFSPYSIHWVRQAPGQGLEWIGYINPSTGYIEYNQHFKDRTTLTADKSTSTAYMELRSLRSEDTAVYYCARGGDYEGYFDYWGQGTTVTVSS VL: DIQMTQSPSSLSASVGDRVTITCRLNENIYSFLAWYQQKPGKAPKLLVYNAETLAEDVPSRFSGSGSGTDFTLTISSLQPEDFATYYCQQHYGTPYTFGGGTKVEIK
12 | 0.0312 nM | 0.000136 s⁻¹ | 4.37e+06 M⁻¹ s⁻¹ | 0.111 µg/mL | – | Hu50C5-11 (antibody, V domains shown, Humanized; also called 35230Hu50C5-11) VH: EVQLVQSGAEVKKPGSSVKVSCKASGYIFSPYSIHWVRQAPGQGLEWIGYINPSTGYIEYNQHFKDRVTITADKSTSTAYMELRSLRSEDTAVYYCARGGDYEGYFDYWGQGTTVTVSS VL: DIQMTQSPSSLSASVGDRVTITCRLNENIYSFLAWYQQKPGKAPKLLIYNAETLAEGVPSRFSGSGSGTDFTLTISSLQPEDFATYYCQQHYGTPYTFGGGTKVEIK
13 | 0.0282 nM | 0.000139 s⁻¹ | 4.91e+06 M⁻¹ s⁻¹ | 0.0459 µg/mL | – | Hu50C5-8 (antibody, V domains shown, Humanized; also called 35230Hu50C5-8) VH: EVQLVQSGAEVKKPGSSVKVSCKASGYIFSPYSIHWVRQAPGQGLEWMGYINPSTGYIEYNQHFKDRVTITADKSTSTAYMELRSLRSEDTAVYYCARGGDYEGYFDYWGQGTTVTVSS VL: DIQMTQSPSSLSASVGDRVTITCRLNENIYSFLAWYQQKPGKAPKLLVYNAETLAEDVPSRFSGSGSGTDFTLTISSLQPEDFATYYCQQHYGTPYTFGGGTKVEIK
14 | 0.023 nM | 0.000106 s⁻¹ | 4.62e+06 M⁻¹ s⁻¹ | 0.017 µg/mL | – | Hu50C5-19 (antibody, V domains shown, Humanized; also called 35230Hu50C5-19) VH: EVQLVQSGAEVKKPGSSVKVSCKASGYIFSPYSIHWVRQAPGQGLEWIGYINPSTGYIEYNQHFKDRTTLTADKSTSTAYMELRSLRSEDTAVYYCARGGDYEGYFDYWGQGTTVTVSS VL: DIQMTQSPSSLSASVGDRVTITCRLNENIYSFLAWYQQKPGKAPKLLVYNAETLAEDVPSRFSGSGSGTQFTLTISSLQPEDFATYYCQQHYGTPYTFGGGTKVEIK
15 | 0.0236 nM | 0.000108 s⁻¹ | 4.59e+06 M⁻¹ s⁻¹ | 0.0216 µg/mL | – | Hu50C5-21 (antibody, V domains shown, Humanized; also called 35230Hu50C5-21) VH: EVQLVQSGAEVKKPGSSVKVSCKASGYIFTPYSIHWVRQAPGQGLEWIGYINPSTGYIEYNQHFKDRTTLTADKSTSTAYMELRSLRSEDTAVYYCARGGDYEGYFDYWGQGTTVTVSS VL: DIQMTQSPSSLSASVGDRVTITCRLNENIYSFLAWYQQKPGKAPKLLIYNAETLAEGVPSRFSGSGSGTDFTLTISSLQPEDFATYYCQQHYGTPYTFGGGTKVEIK
16 | 0.0315 nM | 3.87e-05 s⁻¹ | 1.23e+06 M⁻¹ s⁻¹ | 0.00855 µg/mL | – | 23F4 chimera (antibody, V domains shown, Human constant regions (captured by anti-human Fc IgG); also called Hu23F4-chimera) VH: QVQLQQSGPELVKPGTSMKISCKTSDYTLTSHYLHWVKQRPGQGLEWIGWIFPGDDKTKYNEKFKGKATLTSDKTSNTAYMQLSSLTSEESAVYFCARGTKYLNWNFDVWGTGTTVTVSS VL: DIVLTQPQKFLSTSVGDRVSVTCKANQNVGTTLAWYQQKPGQSPKALIYSASYRYSGVPDRFTGSGSGTDFTLTISNVQSEDLAEYFCHQYTTYPLTFGGGTKLEIK

Reference: patent US20190002549A1 (I MAB BIOPHARMA, published 2019)
